According to patent US20250059270A1 (SESEN BIO, published 2025):

T1: dog IL-6 (dog, UniProt P41323 21-207)
T1 construct: also called canine IL-6
T1 sequence (looked up): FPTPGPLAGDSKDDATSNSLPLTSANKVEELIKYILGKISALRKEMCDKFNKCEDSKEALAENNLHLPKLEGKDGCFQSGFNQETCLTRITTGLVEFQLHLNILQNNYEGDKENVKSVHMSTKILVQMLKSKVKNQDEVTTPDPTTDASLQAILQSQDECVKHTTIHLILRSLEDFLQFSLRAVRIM

T2: mouse IL-6 (mouse, UniProt P08505 25-211)
T2 construct: also called rodent IL-6
T2 sequence (looked up): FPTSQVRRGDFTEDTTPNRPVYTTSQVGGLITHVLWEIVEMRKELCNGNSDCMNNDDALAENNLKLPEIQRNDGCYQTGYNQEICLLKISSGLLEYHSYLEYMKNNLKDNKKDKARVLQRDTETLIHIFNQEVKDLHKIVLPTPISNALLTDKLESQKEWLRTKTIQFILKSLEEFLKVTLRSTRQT

T3: rabbit IL-6 (rabbit, UniProt Q9MZR1 27-241, limits assumed)
T3 sequence (looked up): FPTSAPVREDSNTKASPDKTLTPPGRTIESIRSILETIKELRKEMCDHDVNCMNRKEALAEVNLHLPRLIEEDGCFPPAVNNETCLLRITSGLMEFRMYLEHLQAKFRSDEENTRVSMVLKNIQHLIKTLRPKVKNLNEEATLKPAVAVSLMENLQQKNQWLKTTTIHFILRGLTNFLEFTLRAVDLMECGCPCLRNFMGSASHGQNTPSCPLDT

T4: rat IL-6 (rat, UniProt P20607 25-211)
T4 construct: also called rodent IL-6
T4 sequence (looked up): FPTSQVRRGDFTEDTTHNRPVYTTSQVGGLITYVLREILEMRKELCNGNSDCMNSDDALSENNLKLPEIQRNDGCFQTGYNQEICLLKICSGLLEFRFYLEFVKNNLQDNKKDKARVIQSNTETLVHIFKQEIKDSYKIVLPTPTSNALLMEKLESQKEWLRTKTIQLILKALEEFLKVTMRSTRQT


Columns and labels:
dog IL-6 = biological target: T1, dog IL-6; assay: monovalent affinity, method not stated
mouse IL-6 = biological target: T2, mouse IL-6; assay: monovalent affinity, method not stated
rabbit IL-6 = biological target: T3, rabbit IL-6; assay: monovalent affinity, method not stated
rat IL-6 = biological target: T4, rat IL-6; assay: monovalent affinity, method not stated
human IL-6 = biological target: T5, human IL-6 (human, UniProt P05231 30-212); assay: yeast system (yeast display, biotinylated human IL-6); original humanized h64, before affinity maturation; yeast system
T5 construct: Recombinant protein was R&D Systems 206-IL/CF where stated; It was biotinylated in the yeast display assays and amine-coupled to the chip in SPR; also called free IL-6; biotinylated human IL-6

| Kd (dog IL-6) [µM] | Kd (mouse IL-6) [µM] | Kd (rabbit IL-6) [µM] | Kd (rat IL-6) [µM] | Kd (human IL-6) [µM] | Binder |
| --- | --- | --- | --- | --- | --- |
| > 1 | > 1 | > 1 | > 1 | – | 018 Fab (Fab, V domains shown, Fab with CK and IgG1 CH1 domains; also called Fab fragment of the h64-1.4 humanized antibody) VH: QVQLVQSGAEVKKPGSSVKVSCKASGYALSNYLIEWVRQAPGQGLEWMGVITPGSGTINYAQKFQGRVTITADESTSTAYMELSSLRSEDTAVYYCARSRWDPLYYYALEYWGQGTTVTVSS VL: DIVMTQSPDSLAVSLGERATINCRASESVDNYGIPFMNWYQQKPGQPPKLLIYAASNRGSGVPDRFSGSGSGTDFTLTISSLQAEDVAVYYCQQSEEVPLTFGQGTKLEIKR |
| – | – | – | – | 0.000343 | h64 IgG (humanized 64, human IgG1) (antibody, V domains shown, Expressed as inline fusions with the human IgG1 constant domains; also called the original humanized molecule; original h64 antibody) VH: QVQLVQSGAEVKKPGSSVKVSCKASGYAFSNYLIEWVRQAPGQGLEWMGVITPGSGTINYAQKFQGRVTITADESTSTAYMELSSLRSEDTAVYYCARSRWDPLYYYALEYWGQGTTVTVSS VL: DIVMTQSPDSLAVSLGERATINCRASESVDNYGISFMNWYQQKPGQPPKLLIYAASNQGSGVPDRFSGSGSGTDFTLTISSLQAEDVAVYYCQQSKEVPLTFGQGTKLEIK |
